According to the DeepSol protein solubility set:

Experiment: soluble on expression in E. coli; label from the status in PepcDB or PDB records

| Sequence | soluble on expression in E. coli |
| --- | --- |
| MGSDKIHHHHHHAATHAKTTKTVKTTGGAKTKAAKAKAIKSTSTHIKLQGASNARDLGGYVNRHGQKIKAHRLIRANSLSHLTKADQTKLVKTYHVATDVDLRTTTEQKMSPDVHMAGVKLVKANVFKSFGAFPDFSKKGAGAKMMEKTYHDAVTTAQGRKAYKSLFHQLLINPKGKAVLWHCSAGKDRAGMGTALVLSALKFDKKAIAQDYLKSNTYLAQTNKENLQKMEAGWKAQGKEVTPIVVENFRAQNAVKMAYLNTMYKAIDAKYGNMDNFLHKGLGLSNTQLKQLQANYLTSAK | not soluble |
| MEADGLGCAVCVLTGASRGFGRALAPQLARLLSPGSVMLVSARSESMLRQLKEELGAQQPDLKVVLAAADLGTEAGVQRLLSAVRELPRPEGLQRLLLINNAATLGDVSKGFLNVNDLAEVNNYWALNLTSMLCLTSGTLNAFQDSPGLSKTVVNISSLCALQPYKGWGLYCAGKAARDMLYQVLAAEEPSVRVLSYAPGPLDNDMQQLARETSKDPELRSKLQKLKSDGALVDCGTSAQKLLGLLQKDTFQSGAHVDFYD | soluble |
| MSLRSRDITLTGTYLPNTPVTLVVDGVAQVQGMTDSAGRFRLTGTLEPGRNRVYVMGEGPLASREYAVRYLPPYTDMAGHWAEAVVDALHERGVVSLYPLPRFEPEAQVTRMEFAVMVARALRLPAAEEQAPFTDVAVMPQWALLEVAAAVKAGIIKGMPDGSFAPDRLVTRAEMAAMLTRALAWAGLEVKPEAPEFADQAEIPDWAVEPVAAAVRHGLIKGYPDGTFRPGSPTTRAEAATMVHRLLQTVIGLNPEGHHHHHH | soluble |
| MGSDKIHHHHHHMKIKIGKVEKRLNQIIEEEGAVYLTLLDPEEENIEEIAENVKDYADAIMVGGSIGIVNLDETVKKIKKITKLPIILFPGNVDGLSRYADAVFYMSLMNSANTYWVVTAPTLGAITILKYNLEPIPMAYLCIEPAKKTAVGYVGEIREIPQNKPKITAMYCLSAKFFGMRWAYLEAGSGASYPVNNETIALSKKLSGINIIVGGGIRKPEIAYEKVLAGADAIVTGNLLEENPKAVEMMYDAIKKAGKEKLKNK | not soluble |
| MGSDKIHHHHHHMRLPPLNALRAFEAAARHNGYIAAAEELCVTRGAVSRHIKLLEDHLGVTLFHRNHRGVELTAAGRQLLPVLTETFARIAREAEQISAMTRDVRIICPPALSIRWLFPRLEEFQAAHPDIRVRLTTEFYGAKGFDDTEHDLGVSVEHVSGRGAGIASMPLFPMVLSPACSPALLRQRPLSAPADLARMTLLHESPQRRDWAHWLSSFGVRGVDAGSGPTFPNLDMAARAATMGAGVVMADLALCQEELRAGTLVLPFPEMTCTTPQGGYVLLGARARWDEPHLRAFRDWAASSSADLVACMGA | not soluble |
| MTNLTNYHSHCLYCDGRANMEDFIRFAISEGFSSYGISSHAPLPFSTAWTMEWDRMDDYLSEFARLKEKYADKIELAIGLEIDYLNEESHPAIPRFQELPLDYRIGSVHMLYSPQGKVVDIDTPADIFRQLIDAHFEGDLDYVVHLYYKNLLRMVELGGFDILGHADKMHYNASCYRPGLLDEPWYDALVRDYFAEIARHGYIVEINTKSYHDLGTFYPNERYFPLLKELGIRVQVNSDAHYPERINNSRAEALAALKKVGFDTVVEWHGGQWKDMPLLQ | not soluble |
| SAEAGTGEPSPSVEGEHGTEYDTLPSDTVSLSDSDSDLSLPGGAEVEALSPMGLPGEEDSGPDEPPSPPSGLLPATVQPFHLRGMSSTFSQRSRDIFDCLEGAARRAPSSVAHTSMSDNGGFKRPLAPSGRSPVEGLGRAHRSPASPRVPPVPDYVAHPERWTKYSLEDVTEVSEQSNQATALAFLGSQSLAAPTDCVSSFNQDPSSCGEGRVIFTKPVRGVEARHERKRVLGKVGEPGRGGLGNPATDRGEGPVELAHLAGPGSPEAEEWGSPHGGLQEVEALSGSVHSGSVPGLPPVETVGFHGSRKRSRDHFRNKSSSPEDPGAEV | soluble |
| MGSDKIHHHHHHGSITVILGPMFSGKTTELLRLHDRQIIAKRTCVLVKYAGDTRYDADLVATHSKMTGQGRTVKAHRLSEVQSQIFNDEVQVVSIDEGQFFEDLAETCEELAQRGKVVCVAALNGTFERKPFPQISLLLPYANEIKQVTAVCVECGSQANFSFRSTLDKKVEVIGGSDTYTALCRECY | not soluble |
| MKYAVLIGDGMADYPIEELGSRTILQAARTPAMDSIAARGKTGLAKTVPEGFPPGSDVANMSIFGYDPAIYYSGRAPLEAASMGVALAADDVAFRCNLITIENGKIKDYSAGHISSDEAEILIDTLDSELRTEKVRFYPGISYRHLIVAGNDLGAETECLEHHHHHH | soluble |
| MGSDKIHHHHHHMMRPALRSTSTPKSPLVTCVSHDLTVSAPQGVFLSGLNTKFRAYVGGFGSGKTYVGCLDLGLFAGQHPKTVQGYFAPTYRDIRDTFWPTVDEAAHSLGFTTKVKSADKEVEFYRGRSYYGTTICRSMDDPGGIVGFKIARALVDEIDILSKDKAQAAWRKIIARMRLVLPGVVNGIGVTTTPEGFRFVYDSFKREPKSNYSMVQASTYENEAFLPPDYISTLLEDYPEELIKAYLMGEFVNLTSGTVYRSYDRLRHRSTQSIQPREPLHIGQDFNVGNMASVVFVQRGEDWHAVDELQGLQDTPHLIEVLCDRYEGHHLTIYPDASGSSRKTVNASTSDIELLRKAGHAIRAPSTNPAVKDRILAVNTAFENGRLFVNALRCKAYAEALEQQAYDKNGEPDKSAGLDHHPDAGGYFVHQKMPVVKPTFTRQELRL | not soluble |
| MATASADTLCSQQEDESWGNLMLHGFQVEAYKPVRVGDKVCYSFYLKNTGSSDVTLGKKGVYLHTNDGDLSSNSGATISPGKSIFVKDCFIASSSGEWTTYPGVCIITAKGEFCHNFETSCTFDVFIECPENWNCMTAEDASQGNYIRYSDELCGYTITGFTAMNKVRCTATEKLLNALQALGV | not soluble |
| MYRGEPGTRAHQQEEHVVDSSPLEPSSSLEDTRVWGHVGVAAAPRLLAQALPKLRCKLPKPQAPLAGHEAQQPRGGLILPLALASELMESSTVQWLSYKQPQVVPVVPQLPRVLWQVQPLEKPGSQSFRNNQPSILLKTRLRFSITRISLFNYHR | soluble |
| MPVAHVALPVPLPRTFDYLLPEGMAVKAGCRVRVPFGKQQERIGVVVSVSDVSELPLNELKAVVEVLDSEPVFTHSVWRLLLWAADYYHHPIGDVLFHALPILLRQGRPAANAPMWYWFATEQGHAVDLNSLKRSPKQQQALAALRQGKIWRDQVATLEFNDAALQALRKKGLCDLASETPEFSDWRTNYAVSGERLRLNTEQATAVGAIHSAADTFSAWLLAGVTGSGKTEVYLSVLENVLAQGKQALVMVPEIGLTPQTIARFRERFNAPVEVLHSGLNDSERLSAWLKAKNGEAAIVIGTRSALFTPFKNLGVIVIDEEHDSSYKQQEGWRYHARDLAVYRAHSEQIPIILGSATPALETLCNVQQKKYRLLRLTRRAGNARPAIQHVLDLKGQKVQAGLAPALITRMRQHLQADNQVILFLNRRGFAPALLCHDCGWIAECPRCDHYYTLHQAQQHLRCHHCDSQRPVPRQCPSCGSTHLVPVGLGTEQLEQTLAPLFPGVPISRIDRDTTSRKGALEQQLAEVHRGGARILIGTQMLAKGHHFPDVTLVALLDVDGALFSADFRSAERFAQLYTQVAGRAGRAGKQGEVVLQTHHPEHPLLQTLLYKGYDAFAEQALAERRMMQLPPWTSHVIVRAEDHNNQHAPLFLQQLRNLILSSPLADDKLWVLGPVPALAPKRGGRWRWQILLQHPSRVRLQHIINGTLALINTIPDSRKVKWVLDVDPIEG | not soluble |
| YEMSSVGVINLRNMYSTYDPTEVKGKINEGPPFSGSLFYKNIPYGNSSIELKVEMNSVEKANFFSGKRVDIFTLEYSPPSNSNIKKNSYGGITLSDGNRIDKKNIPVNIFIDGVQQKYSYTDISTVSTDKKEVTIQELDVKSRYYLQKHFNIYGFGDVKDFGRSSRFQSGFEEGNIIFHLNSGERISYNMFDTGHGDRESMLKKYSDNKTAYSDQLHIDIYLVKFNK | soluble |
| AHHHHHHGSKRVNAFNDLKRIGDDKVTAIGMGTWGIGGRETPDYSRDKESIEAIRYGLELGMNLIDTAEFYGAGHAEEIVGEAIKEFEREDIFIVSKVWPTHFGYEEAKKAARASAKRLGTYIDLYLLHWPVDDFKKIEETLHALEDLVDEGVIRYIGVSNFNLELLQRSQEVMRKYEIVANQVKYSVKDRWPETTGLLDYMKREGIALMAYTPLEKGTLARNECLAKIGEKYGKTAAQVALNYLIWEENVVAIPKASNKEHLKENFGAMGWRLSEEDREMARRCV | soluble |
